Experimental data published in patent US20210206875A1, “ERBB-2 TARGETING AGENT AND A BISPECIFIC ANTIBODY WITH ANTIGEN-BINDING SITES THAT BIND AN EPITOPE ON AN EXTRACELLULAR PART OF ERB-2 AND ERBB-3, FOR TREATMENT OF AN INDIVIDUAL WITH AN ERBB-2, ERBB-2/ERBB-3 POSITIVE TUMOUR” (Merus N.V., priority 2017, published 2021).

Target: Erbb-3-Fc (RND systems) (UniProt P21860)
Experiment: SPR (Biacore T100), monovalent affinity; column head 'KD on Her3 (nM)'; PB4188 on CM5 chip, Her3-Fc in solution

PB4188 (MF3958 x MF3178) (bispecific antibody)
Kd: 3.9 nM
